Laboratory results from patent publication US20140348747A1.
Where a chain is given by its changes, count along the chain named. “And” between values parts separate entries of the source, which are not always exact repeats. Equal entries are not always repeated. Where two headings read alike, the source gives them in different places.

Key:
Details in all cases: modification not given
VTGWR = biological target: T1, VTGWR
T1 chain: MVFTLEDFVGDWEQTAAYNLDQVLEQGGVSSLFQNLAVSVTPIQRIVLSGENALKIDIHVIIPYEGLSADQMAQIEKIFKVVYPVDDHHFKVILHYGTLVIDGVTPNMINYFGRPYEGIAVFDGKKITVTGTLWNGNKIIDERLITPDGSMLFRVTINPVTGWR

[1] = biological target: T2, wild-type non-luminescent polypeptide (WT fragment of residues 1-156 of NanoLuc)
T2 chain: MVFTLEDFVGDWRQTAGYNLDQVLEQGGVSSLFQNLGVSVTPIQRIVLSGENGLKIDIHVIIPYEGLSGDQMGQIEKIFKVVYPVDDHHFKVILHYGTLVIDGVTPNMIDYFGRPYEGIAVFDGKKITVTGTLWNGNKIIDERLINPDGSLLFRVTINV

5P+V = biological target: 5P+V
P157H = biological target: T3, P157H
T3 chain: T2 chain with R13E, G17A, G37A, G53A, G69A, G73A, D110N, N146T, L151M, V159H

H57R = biological target: T4, H57R
T4 chain: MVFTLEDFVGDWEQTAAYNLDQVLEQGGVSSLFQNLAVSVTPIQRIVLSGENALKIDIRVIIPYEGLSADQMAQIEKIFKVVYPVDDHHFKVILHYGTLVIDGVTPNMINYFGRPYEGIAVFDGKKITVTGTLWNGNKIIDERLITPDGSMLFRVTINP

A51T = biological target: T5, A51T
T5 chain: T4 chain with A53T, R59H

L46R = biological target: T6, L46R
T6 chain: T4 chain with L48R, R59H

VA = biological target: VA
5P+VTG = biological target: 5P+VTG
VTGW = biological target: T7, VTGW
T7 chain: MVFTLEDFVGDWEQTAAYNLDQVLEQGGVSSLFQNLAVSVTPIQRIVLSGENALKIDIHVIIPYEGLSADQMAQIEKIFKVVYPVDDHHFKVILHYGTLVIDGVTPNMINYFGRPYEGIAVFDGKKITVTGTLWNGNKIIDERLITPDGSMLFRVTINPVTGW

AA = biological target: AA
P157S = biological target: T8, P157S
T8 chain: T4 chain with R59H, P159S

5P+VT = biological target: 5P+VT
F31L+H93P = biological target: T9, F31L+H93P
T9 chain: T4 chain with F33L, R59H, H95P

D2 = biological target: T10, D2
T10 chain: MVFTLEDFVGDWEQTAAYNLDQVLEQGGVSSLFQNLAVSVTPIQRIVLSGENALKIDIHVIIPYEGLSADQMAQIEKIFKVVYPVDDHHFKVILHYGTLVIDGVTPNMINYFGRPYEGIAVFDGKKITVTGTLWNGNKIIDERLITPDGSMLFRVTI

F31L = biological target: T11, F31L
T11 chain: T4 chain with F33L, R59H

[2] = biological target: T2, wild-type non-luminescent polypeptide …
[3] = biological target: T2, wild-type non-luminescent polypeptide …
VT = biological target: VT
H93P = biological target: T12, H93P
T12 chain: T4 chain with R59H, H95P

NLpoly 11S (12-A51T) = biological target: T13, NLpoly 11S (12-A51T)
T13 chain: T4 chain with F33L, L48R, R59H, K77E, I78V, H95P, I109L, P159S

V58A = biological target: T14, V58A
T14 chain: T4 chain with R59H, V60A

Kd (VTGWR): 0.0133 µM
Kd [1]: 0.341 µM and 1.05 µM
Kd (5P+V): 0.0249 µM
Kd (P157H): 0.0179 µM
Kd (H57R): 0.0141 µM
Kd (A51T): 0.0188 µM
Kd (L46R): 0.0184 µM
Kd (VA): 0.0146 µM
Kd (5P+VTG): 0.026 µM
Kd (VTGW): 0.013 µM
Kd (AA): 0.0113 µM
Kd (P157S): 0.0152 µM
Kd (5P+VT): 0.0254 µM
Kd (F31L+H93P): 0.0172 µM
Kd (D2): 0.0102 µM
Kd (F31L): 0.0148 µM
Kd [2]: 0.784 µM
Kd [3]: 1750 µM
Kd (VT): 0.0131 µM
Kd (H93P): 0.024 µM
Kd (NLpoly 11S (12-A51T)): 26 µM
Kd (V58A): 0.0152 µM
Binder: NVSGWRLFKKISN [NLpep78]
